According to paper PMC8574189, “Surface-induced dissociation of protein complexes on a cyclic ion mobility spectrometer†” (The Analyst, 2021):

Assays:
[1] = target: alcohol dehydrogenase tetramer (from saccharomyces cerevisiae) (saccharomyces cerevisiae) (UniProt P00330); assay: native MS; nanoelectrospray, 200 mM ammonium acetate, or charge-reduced in 160 mM ammonium acetate with 40 mM TEAA or EDDA; 5–10 μM protein complex; cyclic IMS (cIMS) and Synapt G2; TRAP with 14 equivalents of trp
[2] = target: streptavidin homotetramer (UniProt P22629); assay: as above
[3] = target: αβγHis heterotrimer of His-tagged toyocamycin nitrile hydratase (TNH); assay: as above
[4] = target: the molecule itself; assay: as above
[5] = target: the molecule itself; assay: native MS
[6] = target: T1, C-reactive protein pentamer, P02741; assay: native MS; nanoelectrospray, 200 mM ammonium acetate, or charge-reduced in 160 mM ammonium acetate with 40 mM TEAA or EDDA; 5–10 μM protein complex; cyclic IMS (cIMS) and Synapt G2; TRAP with 14 equivalents of trp; settings: remark: other sources report otherwise
T1 chain: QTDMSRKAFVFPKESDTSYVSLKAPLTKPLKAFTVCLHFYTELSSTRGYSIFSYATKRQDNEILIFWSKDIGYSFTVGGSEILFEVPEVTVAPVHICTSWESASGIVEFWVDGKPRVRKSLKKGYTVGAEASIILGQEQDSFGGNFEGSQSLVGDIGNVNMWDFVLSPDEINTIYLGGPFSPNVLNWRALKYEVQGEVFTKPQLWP

Work on “alcohol dehydrogenase tetramer (from saccharomyces cerevisiae) (from UniProt P00330 1-348) (enzyme)” yielded a stoichiometry N [1] of 4.

In the case of “streptavidin homotetramer (from UniProt P22629 25-183) (natural protein)”, the stoichiometry N [2] is reported as 4.

“αβγHis heterotrimer of His-tagged toyocamycin nitrile hydratase (TNH) (complex)” gave a stoichiometry N [3] of 2.

B1: trp RNA binding attenuation protein (TRAP) homo-11mer (natural protein, UniProt Q9X6J6 1-74, looked up)
chain: MYTNSDFVVIKALEDGVNVIGLTRGADTRFHHSEKLDKGEVLIAQFTEHTSAIKVRGKAYIQTRHGVIESEGKK
notes: 91 kDa homo-11mer; it could be B. subtilis; also called holoTRAP; source: obtained from the Foster group (The Ohio State University) and the Gollnick group (State University of NY, Buffalo); copies: 11
In the case of B1, the “stoichiometry N” value [4] is reported as 11.

B2: cholera toxin B homopentamer (natural protein)
chain: TPQNITDLCAEYHNTQIYTLNDKIFSYTESLAGKREMAIITFKNGAIFQVEVPGSQHIDSQKKAIERMKDTLRIAYLTEAKVEKLCVWNNKTPHAIAAISMAN
notes: also called 58 kDa cholera toxin B homopentamer
With B2 the “stoichiometry N” value [5] was 5.

B3: phosphorylase B dimer from rabbit muscle (enzyme, UniProt P00489 1-843, looked up)
chain: MSRPLSDQEKRKQISVRGLAGVENVTELKKNFNRHLHFTLVKDRNVATPRDYYFALAHTVRDHLVGRWIRTQQHYYEKDPKRIYYLSLEFYMGRTLQNTMVNLALENACDEATYQLGLDMEELEEIEEDAGLGNGGLGRLAACFLDSMATLGLAAYGYGIRYEFGIFNQKICGGWQMEEADDWLRYGNPWEKARPEFTLPVHFYGRVEHTSQGAKWVDTQVVLAMPYDTPVPGYRNNVVNTMRLWSAKAPNDFNLKDFNVGGYIQAVLDRNLAENISRVLYPNDNFFEGKELRLKQEYFVVAATLQDIIRRFKSSKFGCRDPVRTNFDAFPDKVAIQLNDTHPSLAIPELMRVLVDLERLDWDKAWEVTVKTCAYTNHTVLPEALERWPVHLLETLLPRHLQIIYEINQRFLNRVAAAFPGDVDRLRRMSLVEEGAVKRINMAHLCIAGSHAVNGVARIHSEILKKTIFKDFYELEPHKFQNKTNGITPRRWLVLCNPGLAEIIAERIGEEYISDLDQLRKLLSYVDDEAFIRDVAKVKQENKLKFAAYLEREYKVHINPNSLFDVQVKRIHEYKRQLLNCLHVITLYNRIKKEPNKFVVPRTVMIGGKAAPGYHMAKMIIKLITAIGDVVNHDPVVGDRLRVIFLENYRVSLAEKVIPAADLSEQISTAGTEASGTGNMKFMLNGALTIGTMDGANVEMAEEAGEENFFIFGMRVEDVDRLDQRGYNAQEYYDRIPELRQIIEQLSSGFFSPKQPDLFKDIVNMLMHHDRFKVFADYEEYVKCQERVSALYKNPREWTRMVIRNIATSGKFSSDRTIAQYAREIWGVEPSRQRLPAPDEKIP
notes: glycogen phosphorylase b from rabbit muscle; 195 kDa dimer; also called PHB; source: from rabbit muscle, bought: Sigma Aldrich (lyophilized powder)
In the case of B3, the “stoichiometry N” value [4] is reported as 2.

B4: C-reactive protein pentamer, P02741 19-224 (natural protein)
chain: QTDMSRKAFVFPKESDTSYVSLKAPLTKPLKAFTVCLHFYTELSSTRGYSIFSYATKRQDNEILIFWSKDIGYSFTVGGSEILFEVPEVTVAPVHICTSWESASGIVEFWVDGKPRVRKSLKKGYTVGAEASIILGQEQDSFGGNFEGSQSLVGDIGNVNMWDFVLSPDEINTIYLGGPFSPNVLNWRALKYEVQGEVFTKPQLWP
B4 was tested, and the stoichiometry N [6] was 5.
